Test results: the supplement of paper PMC9233669
This sample holds only a part of the variants without activity.

How the values were obtained:
[1] = tested on: biotinyl-Phe-oxazolone; assay: self-aminoacylation, catalytic enhancement (BFO) (fold over background); higher = more active; k-Seq, kA / k0A0; sequences stand for … in GGGAAUGGAUCCACAUCUACGAAUUC…UUCACUGCAGACUUGACGAAGCUG
Summary of the method: (§1)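 Catalytic enhancement equals the median kA over the uncatalyzed rate, the latter read from the low-activity peak of a bimodal Gaussian fit. Values of kA came from fitting each sequence's fraction reacted to a pseudo-first-order model, with 1000 bootstraps. Reacted RNA was captured with streptavidin and quantified by triplicate qPCR and Illumina sequencing after 90 minutes at room temperature with 2–1250 μM biotinyl-aminoacyl-oxazolone and 0.43 μM mutagenized RNA pools bearing a 21-nt variable region.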

[2] = tested on: biotinyl-Ile-oxazolone; assay: self-aminoacylation, catalytic enhancement (BIO) (fold over background); higher = more active; k-Seq, kA / k0A0; sequences stand for … in GGGAAUGGAUCCACAUCUACGAAUUC…UUCACUGCAGACUUGACGAAGCUG
Summary of the method: as §1

[3] = tested on: biotinyl-Leu-oxazolone; assay: self-aminoacylation, catalytic enhancement (BLO) (fold over background); higher = more active; k-Seq, kA / k0A0; sequences stand for … in GGGAAUGGAUCCACAUCUACGAAUUC…UUCACUGCAGACUUGACGAAGCUG
Summary of the method: as §1

[4] = tested on: biotinyl-Val-oxazolone; assay: self-aminoacylation, catalytic enhancement (BVO) (fold over background); higher = more active; k-Seq, kA / k0A0; sequences stand for … in GGGAAUGGAUCCACAUCUACGAAUUC…UUCACUGCAGACUUGACGAAGCUG
Summary of the method: as §1

[5] = tested on: biotinyl-Trp-oxazolone; assay: self-aminoacylation, catalytic enhancement (BWO) (fold over background); higher = more active; k-Seq, kA / k0A0; sequences stand for … in GGGAAUGGAUCCACAUCUACGAAUUC…UUCACUGCAGACUUGACGAAGCUG
Summary of the method: as §1

[6] = tested on: biotinyl-Met-oxazolone; assay: self-aminoacylation, catalytic enhancement (BMO) (fold over background); higher = more active; k-Seq, kA / k0A0; sequences stand for … in GGGAAUGGAUCCACAUCUACGAAUUC…UUCACUGCAGACUUGACGAAGCUG
Summary of the method: as §1

Sequence | self-aminoacylation [1] | self-aminoacylation [2] | self-aminoacylation [3] | self-aminoacylation [4] | self-aminoacylation [5] | self-aminoacylation [6]
GCACACGUCAAGCAAUCGGUC [Fam1B.1 aminoacylation ribozyme variant] | 11.5 | 2.63 | 2.18 | 2.85 | 3.95 | 2.47
GCACACUUCAAGCAAUCCGUC [Fam1B.1 aminoacylation ribozyme variant] | 1.76 | 1.66 | 1.71 | 1.98 | 2.01 | 1.2
GCACACUUCAAGCAAUCGGUA [Fam1B.1 aminoacylation ribozyme variant] | 2.95 | 2.84 | 2.26 | 2.5 | 3.53 | 1.98
GCACACUUCAAGCGAUCGGUC [Fam1B.1 aminoacylation ribozyme variant] | 1.41 | 1.66 | 1.54 | 1.82 | 2.19 | 1.33
GCACACUUUAAGCAAUCGGUC [Fam1B.1 aminoacylation ribozyme variant] | 1.39 | 1.3 | 1.11 | 1.17 | 1.44 | 1.04
GCACUUCAAACAAUCGGUCUG [Fam1A.1 aminoacylation ribozyme variant] | 156 | 2.33 | 4.11 | 2.16 | 62.3 | 2.32
GCUACCCUGGUCAUCGAGUGA [Fam2.1 aminoacylation ribozyme variant] | 29.5 | 6.27 | 12.3 | 6.39 | 15.5 | 11.4
GGUCACCUAGGUCAUCGGGUG [Fam2.2 aminoacylation ribozyme variant] | 30.3 | 4.07 | 3.98 | 5.01 | 6.88 | 4.37
GUACUUCAAAAAAUCGGUCUG [Fam1A.1 aminoacylation ribozyme variant] | 7.83 | 1.57 | 1.62 | 1.11 | 7.93 | 1.16
GUACUUCAAACAAACGGUCUG [Fam1A.1 aminoacylation ribozyme variant] | 1.72 | 1.43 | 1.31 | 1.15 | 1.15 | 1.22
GUACUUCAAACAACCGGUCUG [Fam1A.1 aminoacylation ribozyme variant] | 4.78 | 1.67 | 1.23 | 1.54 | 2.02 | 1.21
GUACUUCAAACAAUCGGUCAG [Fam1A.1 aminoacylation ribozyme variant] | 7.14 | 1.5 | 1.43 | 1.34 | 7.34 | 1.31
GUACUUCAAACAAUCGGUCUC [Fam1A.1 aminoacylation ribozyme variant] | 39.5 | 1.5 | 2.06 | 1.4 | 26.5 | 1.65
GUACUUCAAACAAUCGGUCUU [Fam1A.1 aminoacylation ribozyme variant] | 12.8 | 1.43 | 1.49 | 1.3 | 12 | 1.14
GUACUUCAAACAAUCGUUCUG [Fam1A.1 aminoacylation ribozyme variant] | 2.04 | 1.15 | 0.972 | 1.13 | 2.37 | 0.889
GUACUUCAAACAAUUGGUCUG [Fam1A.1 aminoacylation ribozyme variant] | 1.82 | 1.36 | 1.34 | 1.16 | 1.75 | 1.18
GUACUUCAAACUAUCGGUCUG [Fam1A.1 aminoacylation ribozyme variant] | 1.78 | 1.38 | 1.14 | 1.26 | 1.46 | 1.29
GUACUUCAACCAAUCGGUCUG [Fam1A.1 aminoacylation ribozyme variant] | 16.5 | 1.39 | 1.59 | 1.28 | 15.1 | 1.39
GUGCACCUAGGUCAUCGGGUG [Fam2.2 aminoacylation ribozyme variant] | 26.8 | 3.96 | 3.9 | 4.64 | 6.04 | 3.85
GUUACCCUGGCCAUCGAGUGA [Fam2.1 aminoacylation ribozyme variant] | 43.7 | 4.06 | 8.07 | 5 | 9.03 | 6.73
GUUACCCUGGUCAACGAGUGA [Fam2.1 aminoacylation ribozyme variant] | 42.7 | 3.72 | 6.2 | 3.22 | 6.61 | 5.98
GUUACCCUGGUCAUCGAGGGA [Fam2.1 aminoacylation ribozyme variant] | 4.93 | 3.06 | 4.18 | 2.7 | 5.33 | 5.05
GUUACCCUGGUUAUCGAGUGA [Fam2.1 aminoacylation ribozyme variant] | 57.6 | 5.48 | 11.8 | 5.74 | 13 | 11.6
